Here are results for 83 variants from the RNAGym collection of RNA variant scans (doi:10.1093/molbev/msab373).

To fix the notation:
B1: Azoarcus group I ribozyme (parent)
chain: GUGCCUUGCGCCGGGAAACCACGCAAGGGAUGGUGUCAAAUUCGGCGAAACCUAAGCGCCCGCCCGGGCGUAUGGCAACGCCGAGCCAAGCUUCGGCGCCUGCGCCGAUGAAGGUGUAGAGACUAGACGGCACCCACCUAAGGCAAACGCUAUGGUGAAGGCAUAGUCCAGGGAGUGGCGAAAGUCACACAAACCGG

Variants of B1 are the subject of the data set. The data set is described as follows: reverse-splicing fitness (ratio to wild type); higher = more active; in vitro selection; Mg2+ level not given. The essentials: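 An in vitro group I ribozyme library with randomized positions was T7-transcribed and gel-purified. In triplicate, 10 pmol RNA in EPPS pH 7.5 was reacted with 50 pmoles of a 30-nt RNA substrate for 1 h at 37 °C across several added MgCl2 levels (1–48 mM), then stopped with EDTA. Products were reverse transcribed from a substrate-complementary primer, PCR-amplified and sequenced (HiSeq 4000). Fitness is a variant's read proportion after selection over that before, normalised to wild type.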
Turning to A111C A120U C150U U176A, the reverse-splicing fitness was determined as 0.145.

Consider A111C A120U A145G C150U C169A U176C, for which the reverse-splicing fitness stood at 0.00404.

Regarding A111C A120U A145G C150U C169A U176G, the reverse-splicing fitness was 0.00278.

In the case of A111C A120U A145G C150U C169A U176A, the reverse-splicing fitness turned out to be 0.00648.

In the case of A111C A120U A145G C150U C169U U176G, the reverse-splicing fitness came out at 0.00321.

With A111C A120U A145G C150U C169U U176C, the reverse-splicing fitness was found to be 0.0178.

With A111C A120U A145G C150U C169U U176A, the reverse-splicing fitness was found to be 0.0118.

In the case of A111C A120G A145U C150U C169G, the reverse-splicing fitness is 0.133.

For A111C A120G A145U C150U C169U, the reverse-splicing fitness amounted to 0.106.

For A111C A120G A145U C150U C169A, the reverse-splicing fitness was 0.0731.

For the variant A111C A120G C150A C169G U176C, the reverse-splicing fitness stood at 0.0245.

In the case of A111C A120G C150A C169G U176A, the reverse-splicing fitness was 0.0175.

On to A111C A120G C150A C169G U176G, for which the reverse-splicing fitness came out at 0.00531.

In the case of A111C A120G C150G U176G, the reverse-splicing fitness is 0.00348.

For the variant A111C A120G C150G U176A, the reverse-splicing fitness was determined as 0.0109.

In the case of A111C A120G C150G U176C, the reverse-splicing fitness was determined as 0.0173.

A111C A120U C150A C169U U176C: the reverse-splicing fitness turned out to be 0.0062.

On to A111C A120U C150A C169U U176A, for which the reverse-splicing fitness was found to be 0.00902.

Turning to A111C A120U C150A C169U U176G, the reverse-splicing fitness was found to be 0.00274.

On to A111C A120U A145C C150G C169A U176C, for which the reverse-splicing fitness came to 0.00297.

A111C A120U A145C C150G C169A U176A: the reverse-splicing fitness is 0.00246.

As to A111C A120U A145C C150G C169A U176G, the reverse-splicing fitness is 0.00224.

For A111C A120U A145C C169U U176A, the reverse-splicing fitness amounted to 0.0108.

On to A111C A120U A145C C169U U176G, for which the reverse-splicing fitness was 0.00215.

For A111C A120U A145C C169U U176C, the reverse-splicing fitness was determined as 0.0145.

Turning to A111C A120U A145C C169A U176G, the reverse-splicing fitness came to 0.00212.

For the variant A111C A120U A145C C169A U176A, the reverse-splicing fitness was 0.00217.

Regarding A111C A120U A145C C169A U176C, the reverse-splicing fitness is 0.00231.

A111C A120U A145U C169G U176G: the reverse-splicing fitness was 0.00209.

With A111C A120U A145U C169G U176A, the reverse-splicing fitness was 0.00434.

On to A111C A120U A145U C169G U176C, for which the reverse-splicing fitness is 0.00935.

On to A111C A120U A145G C150A C169G U176A, for which the reverse-splicing fitness came out at 0.00653.

Consider A111C A120U A145G C150A C169G U176C, for which the reverse-splicing fitness is 0.00682.

For A111C A120U A145G C150A C169G U176G, the reverse-splicing fitness stood at 0.00255.

On to A111C A120G A145U C150U U176A, for which the reverse-splicing fitness is 0.0265.

A111C A120G A145U C150U U176C: the reverse-splicing fitness was found to be 0.0338.

Consider A111C A120G A145U C150U U176G, for which the reverse-splicing fitness stood at 0.00526.

As for A111C A120U, the reverse-splicing fitness turned out to be 0.659.

For the variant A111C A120U C150U C169G U176C, the reverse-splicing fitness stood at 0.00812.

For A111C A120U C150U C169G U176A, the reverse-splicing fitness worked out at 0.00676.

For A111C A120U C150U C169G U176G, the reverse-splicing fitness is 0.00251.

Consider A111C A120U A145U C169A U176C, for which the reverse-splicing fitness was 0.00217.

A111C A120U A145U C169A U176G: the reverse-splicing fitness is 0.00217.

Turning to A111C A120U A145U C169A U176A, the reverse-splicing fitness was 0.00268.

A111C A120U A145U U176C: the reverse-splicing fitness came out at 0.271.

Regarding A111C A120U A145U U176G, the reverse-splicing fitness was 0.0748.

In the case of A111C A120U A145U U176A, the reverse-splicing fitness worked out at 0.221.

Take A111C A120U C150U C169U U176A: the reverse-splicing fitness came out at 0.0122.

Turning to A111C A120U C150U C169U U176C, the reverse-splicing fitness worked out at 0.0116.

Consider A111C A120U C150U C169U U176G, for which the reverse-splicing fitness amounted to 0.00319.

Turning to A111C A120U A145U C150G U176A, the reverse-splicing fitness turned out to be 0.0214.

As to A111C A120U A145U C150G U176G, the reverse-splicing fitness came to 0.00462.

Regarding A111C A120U A145U C150G U176C, the reverse-splicing fitness turned out to be 0.0313.

With A111C A120U A145G C150U C169A, the reverse-splicing fitness came out at 0.00795.

As for A111C A120U A145G C150U C169U, the reverse-splicing fitness was determined as 0.065.

As for A111C A120U A145G C150U C169G, the reverse-splicing fitness amounted to 0.0471.

For the variant A111C A120G C150G C169A, the reverse-splicing fitness was 0.0136.

Turning to A111C A120G C150G C169G, the reverse-splicing fitness was found to be 0.0183.

In the case of A111C A120G C150G C169U, the reverse-splicing fitness came to 0.0177.

Take A111C A120U A145C U176G: the reverse-splicing fitness is 0.0856.

On to A111C A120U A145C U176C, for which the reverse-splicing fitness was found to be 0.17.

As to A111C A120U A145C U176A, the reverse-splicing fitness came to 0.244.

As to A111C A120U A145C C150U C169G U176A, the reverse-splicing fitness worked out at 0.00383.

For A111C A120U A145C C150U C169G U176C, the reverse-splicing fitness was 0.00324.

With A111C A120U A145C C150U C169G U176G, the reverse-splicing fitness came to 0.00229.

Regarding A111C A120U A145G C150G U176A, the reverse-splicing fitness was found to be 0.0151.

Consider A111C A120U A145G C150G U176C, for which the reverse-splicing fitness was 0.0349.

For A111C A120U A145G C150G U176G, the reverse-splicing fitness is 0.00515.

Take A111C A120U C150G: the reverse-splicing fitness was 0.0546.

Take A111C A120U C150U: the reverse-splicing fitness was 0.416.

For A111C A120U C150A, the reverse-splicing fitness turned out to be 0.0711.

On to A111C A120U A145U C150G C169A U176C, for which the reverse-splicing fitness amounted to 0.0035.

A111C A120U A145U C150G C169A U176G: the reverse-splicing fitness worked out at 0.00296.

Take A111C A120U A145U C150G C169A U176A: the reverse-splicing fitness amounted to 0.00343.

Turning to A111C A120U C150U C169G, the reverse-splicing fitness stood at 0.0296.

As to A111C A120U C150U C169A, the reverse-splicing fitness was 0.00639.

With A111C A120U C150U C169U, the reverse-splicing fitness amounted to 0.0424.

On to A111C A120U A145U C150A C169A U176A, for which the reverse-splicing fitness is 0.00258.

In the case of A111C A120U A145U C150A C169A U176C, the reverse-splicing fitness was determined as 0.00244.

In the case of A111C A120U A145U C150A C169A U176G, the reverse-splicing fitness is 0.00209.

For A111C A120U A145U C150A U176A, the reverse-splicing fitness is 0.0343.

As to A111C A120U A145U C150A U176G, the reverse-splicing fitness came to 0.0123.

For the variant A111C A120U A145U C150A U176C, the reverse-splicing fitness is 0.0354.
